{"source": "patent US20200079833A1", "about": "(AstraZeneca / MedImmune, published 2020)", "binders": {"B1": {"name": "SEQ ID NO 11 (peptide)", "peptide": "H[Aib]EGS[αMeF]TSDVSS[αMeF]LEGEAA[αMeK]E[αMeF]VA[αMeF]VV[αMeK]GG-NH2", "modifications": "N-terminus assumed", "SMILES": "CC(C)C[C@H](NC(=O)[C@](C)(Cc1ccccc1)NC(=O)[C@H](CO)NC(=O)[C@H](CO)NC(=O)[C@@H](NC(=O)[C@H](CC(=O)O)NC(=O)[C@H](CO)NC(=O)[C@@H](NC(=O)[C@](C)(Cc1ccccc1)NC(=O)[C@H](CO)NC(=O)CNC(=O)[C@H](CCC(=O)O)NC(=O)C(C)(C)NC(=O)[C@@H](N)Cc1c[nH]cn1)[C@@H](C)O)C(C)C)C(=O)N[C@@H](CCC(=O)O)C(=O)NCC(=O)N[C@@H](CCC(=O)O)C(=O)N[C@@H](C)C(=O)N[C@@H](C)C(=O)N[C@@](C)(CCCCN)C(=O)N[C@@H](CCC(=O)O)C(=O)N[C@@](C)(Cc1ccccc1)C(=O)N[C@H](C(=O)N[C@@H](C)C(=O)N[C@@](C)(Cc1ccccc1)C(=O)N[C@H](C(=O)N[C@H](C(=O)N[C@@](C)(CCCCN)C(=O)NCC(=O)NCC(N)=O)C(C)C)C(C)C)C(C)C"}, "B2": {"name": "SEQ ID NO 77 (peptide)", "peptide": "H[Aib]EGS[αMeF]TSDV[αMeS]S[αMeF]LEGEAA[αMeK]E[αMeF]K([γGlu-Palmitoyl])A[αMeF]VV[αMeK]GG-NH2", "modifications": "N-terminus assumed", "SMILES": "CCCCCCCCCCCCCCCC(=O)N[C@@H](CCC(=O)NCCCC[C@H](NC(=O)[C@](C)(Cc1ccccc1)NC(=O)[C@H](CCC(=O)O)NC(=O)[C@](C)(CCCCN)NC(=O)[C@H](C)NC(=O)[C@H](C)NC(=O)[C@H](CCC(=O)O)NC(=O)CNC(=O)[C@H](CCC(=O)O)NC(=O)[C@H](CC(C)C)NC(=O)[C@](C)(Cc1ccccc1)NC(=O)[C@H](CO)NC(=O)[C@](C)(CO)NC(=O)[C@@H](NC(=O)[C@H](CC(=O)O)NC(=O)[C@H](CO)NC(=O)[C@@H](NC(=O)[C@](C)(Cc1ccccc1)NC(=O)[C@H](CO)NC(=O)CNC(=O)[C@H](CCC(=O)O)NC(=O)C(C)(C)NC(=O)[C@@H](N)Cc1c[nH]cn1)[C@@H](C)O)C(C)C)C(=O)N[C@@H](C)C(=O)N[C@@](C)(Cc1ccccc1)C(=O)N[C@H](C(=O)N[C@H](C(=O)N[C@@](C)(CCCCN)C(=O)NCC(=O)NCC(N)=O)C(C)C)C(C)C)C(=O)O"}, "B3": {"name": "SEQ ID NO 15 (peptide)", "peptide": "Y[Aib]EGS[αMeF]ISD[αMeF]SIAMDKIHQQD[αMeF]VN[αMeF]LLAQK-NH2", "modifications": "N-terminus assumed", "SMILES": "CC[C@H](C)[C@H](NC(=O)[C@H](CO)NC(=O)[C@](C)(Cc1ccccc1)NC(=O)[C@H](CC(=O)O)NC(=O)[C@H](CO)NC(=O)[C@@H](NC(=O)[C@](C)(Cc1ccccc1)NC(=O)[C@H](CO)NC(=O)CNC(=O)[C@H](CCC(=O)O)NC(=O)C(C)(C)NC(=O)[C@@H](N)Cc1ccc(O)cc1)[C@@H](C)CC)C(=O)N[C@@H](C)C(=O)N[C@@H](CCSC)C(=O)N[C@@H](CC(=O)O)C(=O)N[C@@H](CCCCN)C(=O)N[C@H](C(=O)N[C@@H](Cc1c[nH]cn1)C(=O)N[C@@H](CCC(N)=O)C(=O)N[C@@H](CCC(N)=O)C(=O)N[C@@H](CC(=O)O)C(=O)N[C@@](C)(Cc1ccccc1)C(=O)N[C@H](C(=O)N[C@@H](CC(N)=O)C(=O)N[C@@](C)(Cc1ccccc1)C(=O)N[C@@H](CC(C)C)C(=O)N[C@@H](CC(C)C)C(=O)N[C@@H](C)C(=O)N[C@@H](CCC(N)=O)C(=O)N[C@@H](CCCCN)C(N)=O)C(C)C)[C@@H](C)CC"}, "B4": {"name": "SEQ ID NO 12 (peptide)", "peptide": "H[Aib]EGS[αMeF]SSEVSS[αMeF]VEGEAA[αMeK]E[αMeF]VA[αMeF]VV[αMeK]GG-NH2", "modifications": "N-terminus assumed", "SMILES": "CC(C)[C@H](NC(=O)[C@H](CCC(=O)O)NC(=O)[C@H](CO)NC(=O)[C@H](CO)NC(=O)[C@](C)(Cc1ccccc1)NC(=O)[C@H](CO)NC(=O)CNC(=O)[C@H](CCC(=O)O)NC(=O)C(C)(C)NC(=O)[C@@H](N)Cc1c[nH]cn1)C(=O)N[C@@H](CO)C(=O)N[C@@H](CO)C(=O)N[C@@](C)(Cc1ccccc1)C(=O)N[C@H](C(=O)N[C@@H](CCC(=O)O)C(=O)NCC(=O)N[C@@H](CCC(=O)O)C(=O)N[C@@H](C)C(=O)N[C@@H](C)C(=O)N[C@@](C)(CCCCN)C(=O)N[C@@H](CCC(=O)O)C(=O)N[C@@](C)(Cc1ccccc1)C(=O)N[C@H](C(=O)N[C@@H](C)C(=O)N[C@@](C)(Cc1ccccc1)C(=O)N[C@H](C(=O)N[C@H](C(=O)N[C@@](C)(CCCCN)C(=O)NCC(=O)NCC(N)=O)C(C)C)C(C)C)C(C)C)C(C)C"}, "B5": {"name": "SEQ ID NO 14 (peptide)", "peptide": "H[Aib]QGS[αMeF]TSD[αMeF]SK[αMeF]LDSRRAQD[αMeF]VQ[αMeF]LMNT-NH2", "modifications": "N-terminus assumed", "SMILES": "CSCC[C@H](NC(=O)[C@H](CC(C)C)NC(=O)[C@](C)(Cc1ccccc1)NC(=O)[C@H](CCC(N)=O)NC(=O)[C@@H](NC(=O)[C@](C)(Cc1ccccc1)NC(=O)[C@H](CC(=O)O)NC(=O)[C@H](CCC(N)=O)NC(=O)[C@H](C)NC(=O)[C@H](CCCNC(=N)N)NC(=O)[C@H](CCCNC(=N)N)NC(=O)[C@H](CO)NC(=O)[C@H](CC(=O)O)NC(=O)[C@H](CC(C)C)NC(=O)[C@](C)(Cc1ccccc1)NC(=O)[C@H](CCCCN)NC(=O)[C@H](CO)NC(=O)[C@](C)(Cc1ccccc1)NC(=O)[C@H](CC(=O)O)NC(=O)[C@H](CO)NC(=O)[C@@H](NC(=O)[C@](C)(Cc1ccccc1)NC(=O)[C@H](CO)NC(=O)CNC(=O)[C@H](CCC(N)=O)NC(=O)C(C)(C)NC(=O)[C@@H](N)Cc1c[nH]cn1)[C@@H](C)O)C(C)C)C(=O)N[C@@H](CC(N)=O)C(=O)N[C@H](C(N)=O)[C@@H](C)O"}, "B6": {"name": "SEQ ID NO 13 (peptide)", "peptide": "H[Aib]QGS[αMeF]TSDK([γGlu-Palmitoyl])SE[αMeF]LDSERARD[αMeF]VA[αMeF]LEAGG-NH2", "modifications": "N-terminus assumed", "SMILES": "CCCCCCCCCCCCCCCC(=O)N[C@@H](CCC(=O)NCCCC[C@H](NC(=O)[C@H](CC(=O)O)NC(=O)[C@H](CO)NC(=O)[C@@H](NC(=O)[C@](C)(Cc1ccccc1)NC(=O)[C@H](CO)NC(=O)CNC(=O)[C@H](CCC(N)=O)NC(=O)C(C)(C)NC(=O)[C@@H](N)Cc1c[nH]cn1)[C@@H](C)O)C(=O)N[C@@H](CO)C(=O)N[C@@H](CCC(=O)O)C(=O)N[C@@](C)(Cc1ccccc1)C(=O)N[C@@H](CC(C)C)C(=O)N[C@@H](CC(=O)O)C(=O)N[C@@H](CO)C(=O)N[C@@H](CCC(=O)O)C(=O)N[C@@H](CCCNC(=N)N)C(=O)N[C@@H](C)C(=O)N[C@@H](CCCNC(=N)N)C(=O)N[C@@H](CC(=O)O)C(=O)N[C@@](C)(Cc1ccccc1)C(=O)N[C@H](C(=O)N[C@@H](C)C(=O)N[C@@](C)(Cc1ccccc1)C(=O)N[C@@H](CC(C)C)C(=O)N[C@@H](CCC(=O)O)C(=O)N[C@@H](C)C(=O)NCC(=O)NCC(N)=O)C(C)C)C(=O)O"}}, "note": "Starred links: 1 amine or outer side, 2 acyl side, 3 side chain; linkers in the order of their positions; H or OH if unused. Non-standard residues stand in square brackets, D forms with d. Groups on a side chain read outwards from the residue. No end group written: not given here. *: point of attachment. γGlu = O=C(O)[C@H](CCC(=O)[*:2])N[*:1]; Palmitoyl = CCCCCCCCCCCCCCCC(=O)*; αMeF = C[C@](N)(Cc1ccccc1)C(=O)O; αMeK = C[C@](N)(CCCCN)C(=O)O; αMeS = C[C@](N)(CO)C(=O)O; Aib = CC(C)(N)C(=O)O", "data": [{"molecular_target": "GLP-1 receptor (human, UniProt P43220 24-463)", "assay": "cell-based or functional assay", "units": {"Primary assay EC50 (cAMP), Mean pM GLP-1R": "pM", "Primary assay EC50 (cAMP), n1": "nM", "Primary assay EC50 (cAMP), n2": "nM"}, "values": [{"binder": "B1", "Primary assay EC50 (cAMP), Mean pM GLP-1R": 32, "Primary assay EC50 (cAMP), n1": 0.032, "Primary assay EC50 (cAMP), n2": 0.032}, {"binder": "B2", "Primary assay EC50 (cAMP), Mean pM GLP-1R": 1860, "Primary assay EC50 (cAMP), n1": 1.9, "Primary assay EC50 (cAMP), n2": 1.8}, {"binder": "B3", "Primary assay EC50 (cAMP), Mean pM GLP-1R": 119000, "Primary assay EC50 (cAMP), n1": 120, "Primary assay EC50 (cAMP), n2": 120}, {"binder": "B4", "Primary assay EC50 (cAMP), Mean pM GLP-1R": 2100, "Primary assay EC50 (cAMP), n1": 2.1, "Primary assay EC50 (cAMP), n2": 2.1}, {"binder": "B5", "Primary assay EC50 (cAMP), Mean pM GLP-1R": 2440, "Primary assay EC50 (cAMP), n1": 3.1, "Primary assay EC50 (cAMP), n2": 1.8}, {"binder": "B6", "Primary assay EC50 (cAMP), Mean pM GLP-1R": 16, "Primary assay EC50 (cAMP), n1": 0.022, "Primary assay EC50 (cAMP), n2": 0.0096}]}, {"molecular_target": "glucagon receptor (human, UniProt P47871 26-477)", "sequence (P47871 26-477)": "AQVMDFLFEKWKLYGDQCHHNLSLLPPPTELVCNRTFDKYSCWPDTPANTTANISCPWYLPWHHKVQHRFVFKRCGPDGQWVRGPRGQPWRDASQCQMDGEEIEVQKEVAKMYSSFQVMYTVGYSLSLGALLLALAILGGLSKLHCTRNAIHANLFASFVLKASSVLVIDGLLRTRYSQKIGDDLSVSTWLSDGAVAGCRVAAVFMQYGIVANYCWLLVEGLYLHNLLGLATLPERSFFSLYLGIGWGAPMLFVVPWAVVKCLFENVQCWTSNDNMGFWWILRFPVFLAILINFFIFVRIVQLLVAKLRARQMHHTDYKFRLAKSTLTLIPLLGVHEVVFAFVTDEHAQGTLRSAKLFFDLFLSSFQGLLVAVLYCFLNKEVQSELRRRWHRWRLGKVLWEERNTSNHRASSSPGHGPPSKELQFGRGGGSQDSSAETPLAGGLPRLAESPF", "assay": "cell-based or functional assay", "units": {"Primary assay EC50 (cAMP), n1": "nM", "Primary assay EC50 (cAMP), n2": "nM"}, "values": [{"binder": "B1", "Primary assay EC50 (cAMP), n1": 100, "Primary assay EC50 (cAMP), n2": 100}, {"binder": "B2", "Primary assay EC50 (cAMP), n1": 28, "Primary assay EC50 (cAMP), n2": 28}, {"binder": "B3", "Primary assay EC50 (cAMP), n1": 120, "Primary assay EC50 (cAMP), n2": 120}, {"binder": "B4", "Primary assay EC50 (cAMP), n1": 10, "Primary assay EC50 (cAMP), n2": 13}, {"binder": "B5", "Primary assay EC50 (cAMP), n1": 3, "Primary assay EC50 (cAMP), n2": 1.1}, {"binder": "B6", "Primary assay EC50 (cAMP), n1": 7.6, "Primary assay EC50 (cAMP), n2": 4.1}]}, {"molecular_target": "T1, glucose-dependent insulinotropic peptide (gastric inhibitory polypeptide) receptor (human, UniProt P48546 22-466)", "T1 sequence (looked up)": "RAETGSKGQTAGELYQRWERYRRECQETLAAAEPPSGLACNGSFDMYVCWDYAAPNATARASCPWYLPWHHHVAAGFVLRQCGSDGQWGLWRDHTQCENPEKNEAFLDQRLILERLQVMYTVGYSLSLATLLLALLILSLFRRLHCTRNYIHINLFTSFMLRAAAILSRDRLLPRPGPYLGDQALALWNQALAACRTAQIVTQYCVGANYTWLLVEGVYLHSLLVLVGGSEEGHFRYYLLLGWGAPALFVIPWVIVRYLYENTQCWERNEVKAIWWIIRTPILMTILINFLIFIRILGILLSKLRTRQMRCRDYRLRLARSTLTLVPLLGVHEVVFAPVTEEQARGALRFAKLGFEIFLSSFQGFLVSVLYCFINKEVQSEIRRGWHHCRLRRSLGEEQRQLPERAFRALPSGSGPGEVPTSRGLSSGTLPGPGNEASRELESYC", "assay": "cell-based or functional assay", "units": {"Primary assay EC50 (cAMP), n1": "nM", "Primary assay EC50 (cAMP), n2": "nM"}, "values": [{"binder": "B1", "Primary assay EC50 (cAMP), n1": 100, "Primary assay EC50 (cAMP), n2": 100}, {"binder": "B2", "Primary assay EC50 (cAMP), n1": 28, "Primary assay EC50 (cAMP), n2": 28}, {"binder": "B3", "Primary assay EC50 (cAMP), n1": 0.16, "Primary assay EC50 (cAMP), n2": 0.079}, {"binder": "B4", "Primary assay EC50 (cAMP), n1": 45, "Primary assay EC50 (cAMP), n2": 45}, {"binder": "B5", "Primary assay EC50 (cAMP), n1": 15, "Primary assay EC50 (cAMP), n2": 19}, {"binder": "B6", "Primary assay EC50 (cAMP), n1": 0.69, "Primary assay EC50 (cAMP), n2": 0.63}]}]}
